In patent US5232912 one finds Fibrin Clot Inhibition data, which are given here for 6 substances.

The target in this test is bovine thrombin (bovine) (UniProt P00735).

“Suc-Tyr-Glu-Azd-Ile-Pro-Glu-Glu-Ala-Cha-D-Glu-OH (peptide)” had a Fibrin Clot Inhibition of 0.51.

Regarding “Suc-Tyr-Glu-Pip-Ile-Pro-Glu-Glu-Ala-Cha-D-Glu-OH (peptide)”, the Fibrin Clot Inhibition was 1.9.

Substance “Suc-Tyr-Glu-Pro-Ile-Azd-Glu-Glu-Ala-Cha-D-Glu-OH (peptide)” came in with a Fibrin Clot Inhibition of 0.38.

“Suc-Tyr-Glu-Pro-Ile-Pip-Glu-Glu-Ala-Cha-D-Glu-OH (peptide)” returned a Fibrin Clot Inhibition of 0.88.

For “Suc-Tyr-Glu-Pro-Ile-Tiq-Glu-Glu-Ala-Cha-D-Glu-OH (peptide)”, the Fibrin Clot Inhibition came to 0.63.

Turning to “Suc-Tyr-Glu-Tiq-Ile-Pro-Glu-Glu-Ala-Cha-D-Glu-OH (peptide)”, the Fibrin Clot Inhibition came to 0.82.
